Test [1] addresses T1, human CD3 on CD3-expressing cells (Jurkat, human T cells) (human, UniProt P07766 23-207; P04234 22-171).
T1 construct: On cells CD3 stands within the T cell receptor complex (also gamma and zeta chains); also called human CD3 expressing Jurkat cells
Briefly: FACS on Jurkat cells. As for the experimental part: (§1) Briefly, 2×10⁵ cells/well of human CD3-expressing Jurkat, cynomolgus T, or human PSMA-specific expressing cells were incubated with a serial dilution of bispecific antibodies for 30 min at 4° C. After incubation, cells were washed and a goat F(ab′)₂ anti-human Fcγ PE labeled secondary (Jackson Immunolabs) was added to the cells for an additional 30 min. Next, cells were washed, re-suspended in cold PBS+1% BSA and analyzed via flow cytometry on a BD FACS Canto II.
(§2) For FACS analysis, cells were gated by forward scatter height vs. forward scatter area for single events selection, followed by side and forward scatters. The EC₅₀ for cell binding titration was determined using Prism software. Values were calculated using 4-parameter non-linear regression analysis.

Test [2] concerns the target T2, human PSMA on PSMA-expressing cells (human, UniProt Q04609 1-750). Briefly: cell-based or functional assay.
The target in test [3] is T1, human CD3 on CD3-expressing cells …. In words: cell-based or functional assay.
The target of test [4] is T3, cynomolgus CD3 on cynomolgus T cells (cynomolgus, UniProt Q95LI5 22-198; Q95LI8 22-171).
T3 construct: whole, on cells; also called Cyno T-cells; monkey T-cells
Briefly: FACS on cynomolgus T cells. How it is done:
as §1, §2

Test [5] concerns the target T2, human PSMA on PSMA-expressing cells. Briefly: FACS on B16F10.9/PSMA cells. How it is done:
as §1, §2

Test [6] concerns the target T4, soluble heterodimeric hCD3ε/δ.mFc protein (human).
T4 construct: also called soluble human CD3; soluble heterodimeric CD3 protein
T4 chain 1: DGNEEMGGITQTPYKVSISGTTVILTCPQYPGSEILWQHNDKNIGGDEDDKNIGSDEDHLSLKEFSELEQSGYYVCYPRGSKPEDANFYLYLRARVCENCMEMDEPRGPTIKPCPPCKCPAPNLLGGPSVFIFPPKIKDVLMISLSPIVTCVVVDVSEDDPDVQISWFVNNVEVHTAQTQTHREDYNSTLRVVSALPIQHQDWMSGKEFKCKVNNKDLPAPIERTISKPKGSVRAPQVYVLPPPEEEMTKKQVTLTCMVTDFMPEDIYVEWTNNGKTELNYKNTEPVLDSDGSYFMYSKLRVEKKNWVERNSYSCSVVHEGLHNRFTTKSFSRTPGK
T4 chain 2: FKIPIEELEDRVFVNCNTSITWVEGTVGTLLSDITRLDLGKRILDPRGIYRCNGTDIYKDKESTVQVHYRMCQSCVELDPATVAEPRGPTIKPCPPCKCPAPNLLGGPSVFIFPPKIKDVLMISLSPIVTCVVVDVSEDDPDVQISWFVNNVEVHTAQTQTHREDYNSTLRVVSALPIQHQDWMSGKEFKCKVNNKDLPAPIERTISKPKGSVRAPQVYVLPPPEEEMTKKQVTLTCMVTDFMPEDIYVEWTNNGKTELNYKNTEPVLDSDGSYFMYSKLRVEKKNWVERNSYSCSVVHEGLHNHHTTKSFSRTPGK
Briefly: SPR MASS-1, 37 C, antigen-capture (hCD3ε/δ.mFc captured), antibody injected. As for the experimental part: Measurements were conducted on a Sierra Sensors MASS-1 instrument.
In the antigen-capture format, the MASS-1 high-density amine sensor surface was derivatized with a goat anti-mouse IgG2a polyclonal antibody (Southern Biotech). Soluble heterodimeric CD3 protein was captured and the respective antibodies were injected over the captured antigen.
Kinetic association (kₐ) and dissociation (kd) rate constants were determined by processing and fitting the data to a 1:1 binding model using MASS-1 AnalyserR2 curve fitting software. Binding dissociation equilibrium constants (KD) and dissociative half-lives (t_{1/2}) were calculated from the kinetic rate constants as: KD (M)=kd/kₐ; and t_{1/2} (min)=(ln 2/(60*kd).

T3 sequence (Q95LI5 22-198, form in doubt, chain 1 of 2): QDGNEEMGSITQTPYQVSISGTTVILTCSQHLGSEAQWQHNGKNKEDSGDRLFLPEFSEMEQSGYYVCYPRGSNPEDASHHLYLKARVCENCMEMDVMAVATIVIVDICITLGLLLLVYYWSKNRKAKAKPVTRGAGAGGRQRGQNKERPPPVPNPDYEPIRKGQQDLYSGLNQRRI
T3 sequence (Q95LI8 22-171, form in doubt, chain 2 of 2): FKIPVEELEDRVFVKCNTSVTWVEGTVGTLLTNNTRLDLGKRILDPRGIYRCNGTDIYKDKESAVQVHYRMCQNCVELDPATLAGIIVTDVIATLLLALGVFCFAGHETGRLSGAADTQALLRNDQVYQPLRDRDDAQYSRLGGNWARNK
T1 sequence (P07766 23-207 limits assumed, chain 1 of 2): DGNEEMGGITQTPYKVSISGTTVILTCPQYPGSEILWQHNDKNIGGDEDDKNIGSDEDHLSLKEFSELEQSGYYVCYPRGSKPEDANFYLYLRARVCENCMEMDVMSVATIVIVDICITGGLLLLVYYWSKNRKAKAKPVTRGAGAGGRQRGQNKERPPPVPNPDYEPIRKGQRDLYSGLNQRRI
T1 sequence (P04234 22-171 limits assumed, chain 2 of 2): as the sequence (Q95LI8 22-171, form in doubt, chain 2 of 2) above, with V5I, K15N, V20I, T32S, N33D, N34I, A64T, N74S, L83V, R141H counted along it
T2 sequence (Q04609 whole entry): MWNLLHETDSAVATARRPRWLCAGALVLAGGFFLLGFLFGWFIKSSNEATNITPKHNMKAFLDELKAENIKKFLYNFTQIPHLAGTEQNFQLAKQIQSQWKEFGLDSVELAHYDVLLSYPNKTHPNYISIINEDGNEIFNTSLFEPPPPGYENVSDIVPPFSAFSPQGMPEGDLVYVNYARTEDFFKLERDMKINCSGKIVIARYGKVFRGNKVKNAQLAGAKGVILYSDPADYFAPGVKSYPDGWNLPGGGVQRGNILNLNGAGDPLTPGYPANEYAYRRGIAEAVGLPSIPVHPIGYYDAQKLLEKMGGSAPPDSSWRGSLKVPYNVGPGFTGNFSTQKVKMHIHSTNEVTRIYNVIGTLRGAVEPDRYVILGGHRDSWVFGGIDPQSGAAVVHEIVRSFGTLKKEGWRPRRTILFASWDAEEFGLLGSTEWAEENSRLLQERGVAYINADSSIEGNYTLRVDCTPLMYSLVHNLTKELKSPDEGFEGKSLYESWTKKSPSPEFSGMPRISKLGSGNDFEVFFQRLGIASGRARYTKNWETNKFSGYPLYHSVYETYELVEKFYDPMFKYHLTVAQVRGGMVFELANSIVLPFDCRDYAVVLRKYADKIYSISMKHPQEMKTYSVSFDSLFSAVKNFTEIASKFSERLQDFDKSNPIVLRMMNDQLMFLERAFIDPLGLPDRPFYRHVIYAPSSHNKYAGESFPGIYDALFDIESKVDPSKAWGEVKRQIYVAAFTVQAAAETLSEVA

B1: BSPSMA/CD3-003 (bispecific antibody, IgG4, V domains shown)
VH 1: QVQLVESGGGVVQPGRSLRLSCAASGFTFSSYGMHWVRQAPGKGLEWVAVISYAGNNKYYADSVKGRFTVSRDNSKKTLYLQMNSLRSEDTAVYYCAKDSYYDFLTDPDVLDIWGQGTMVTVSS
VH 2: EVQLVESGGGLVQPGRSLRLSCAASGFTFDDYSMHWVRQAPGKGLEWVSGISWNSGSKGYADSVKGRFTISRDNAKNSLYLQMNSLRAEDTALYYCAKYGSGYGKFYHYGLDVWGQGTTVTVSS
VL: DIQMTQSPSSLSASVGDSVTITCRASQSINNYLNWYQQKPGKAPKLLIYTASSLLSGVPSRFSGSGSGTDFTLTISGLHPEDFATYFCQQSFSTPPITFGQGTRLDIK
notes: modified (chimeric) IgG4 Fc domain; also called PSMA-VH-11810 x CD3-VH-G
Usually EC50 stands for the concentration needed to bring the measured effect to its halfway point. A higher EC50 goes with a need for much substance. On to B1, for which the EC50 in test [1] amounted to 16.5 nM; in test [4], 14.2 nM; in test [5], 2.26 nM. Besides, the “C4-2 Cell depletion EC50” value in test [2] stood at 0.0103 nM. Also, the “TrampC2.PSMA Cell depletion EC50” value in test [2] turned out to be 0.00643 nM. For the same molecule, the “T cell activation EC50” value in test [3] amounted to 0.00123 nM.

B2: BSPSMA/CD3-1400 (bispecific antibody, IgG4, V domains shown)
VH 1: QVQLVESGGGVVQPGRSLRLSCAASGFTFSSYGMHWVRQAPGKGLEWVAVISYAGNNKYYADSVKGRFTVSRDNSKKTLYLQMNSLRSEDTAVYYCAKDSYYDFLTDPDVLDIWGQGTMVTVSS
VH 2: EVQLVESGGGLVQPGRSLRLSCAASGFTFDDYSMHWVRQAPGKGLEWVSGISWNSGSIGYADSVKGRFTISRDNAKNSLYLQMNSLRAEDTALYYCAKYGSGYGKFYHYGMDVWGQGTTVTVSS
VL: DIQMTQSPSSLSASVGDSVTITCRASQSINNYLNWYQQKPGKAPKLLIYTASSLLSGVPSRFSGSGSGTDFTLTISGLHPEDFATYFCQQSFSTPPITFGQGTRLDIK
notes: modified (chimeric) IgG4 Fc domain; also called PSMA-VH-11810 x CD3-VH-G14
The Kd is the equilibrium constant for the complex coming apart. A low value points to a tighter complex. Broadly, the koff is the first-order rate constant of dissociation. High values mean fast dissociation, low ones slow dissociation. As a reminder, the kon is the second-order rate constant of association. Higher therefore signals faster complex formation. For the molecule B2, the EC50 in test [1] came to 31.9 nM. This molecule yielded a half-maximal effective concentration (EC50) in test [4] of 170 nM. The molecule further had an EC50 in test [5] of 1.3 nM. Also, in test [6], the Kd was found to be 53.3 nM, the “T½” value turned out to be 3.5 min, the koff is 0.00331 s⁻¹ and the kon was found to be 62100 M⁻¹ s⁻¹.

B3: BSPSMA/CD3-800 (bispecific antibody, IgG4, V domains shown)
VH 1: QVQLVESGGGVVQPGRSLRLSCAASGFTFSSYGMHWVRQAPGKGLEWVAVISYAGNNKYYADSVKGRFTVSRDNSKKTLYLQMNSLRSEDTAVYYCAKDSYYDFLTDPDVLDIWGQGTMVTVSS
VH 2: EVQLVESGGGLVQPGRSLRLSCAASGFTFDDYSMHWVRQAPGKGLEWVSGISWNSGSIGYADSVKGRFTISRDNAKNSLYLQMNSLRAEDTALYYCAKYGSGYGKFYHYGLDVWGQGTTVTVSS
VL: DIQMTQSPSSLSASVGDSVTITCRASQSINNYLNWYQQKPGKAPKLLIYTASSLLSGVPSRFSGSGSGTDFTLTISGLHPEDFATYFCQQSFSTPPITFGQGTRLDIK
notes: modified (chimeric) IgG4 Fc domain; also called PSMA-VH-11810 x CD3-VH-G8
In test [1], B3 came in with an EC50 of 19.3 nM. Further, the “TrampC2.PSMA Cell depletion EC50” value in test [2] is 0.00927 nM. For the same molecule, the “T cell activation EC50” value in test [3] was determined as 0.00176 nM. In addition, in test [4], the midpoint of the response, the EC50, lay at 19.6 nM. This molecule registered a half-maximal effective concentration (EC50) in test [5] of 1.31 nM. For the same molecule, in test [6], the affinity, expressed as Kd, was 19.4 nM; the “T½” value was determined as 10 min; the off-rate constant (koff) is 0.00115 s⁻¹; the kon was determined as 59500 M⁻¹ s⁻¹.

B4: BSPSMA/CD3-1300 (bispecific antibody, IgG4, V domains shown)
VH 1: QVQLVESGGGVVQPGRSLRLSCAASGFTFSSYGMHWVRQAPGKGLEWVAVISYAGNNKYYADSVKGRFTVSRDNSKKTLYLQMNSLRSEDTAVYYCAKDSYYDFLTDPDVLDIWGQGTMVTVSS
VH 2: EVQLVESGGGLVQPGRSLRLSCAASGFTFDDYSMHWVRQAPGKGLEWVSGISWNSGSIGYADSVKGRFTISRDNAKNSLYLQMNSLRAEDTALYYCAKYGSGYGKFYYYGLDVWGQGTTVTVSS
VL: DIQMTQSPSSLSASVGDSVTITCRASQSINNYLNWYQQKPGKAPKLLIYTASSLLSGVPSRFSGSGSGTDFTLTISGLHPEDFATYFCQQSFSTPPITFGQGTRLDIK
notes: modified (chimeric) IgG4 Fc domain; also called PSMA-VH-11810 x CD3-VH-G13
Turning to B4, the EC50 in test [1] was 102 nM. Moreover, the “C4-2 Cell depletion EC50” value in test [2] came out at 0.00874 nM. Moreover, in test [3], the “T cell activation EC50” value came out at 0.00231 nM. Moreover, the EC50 in test [4] stood at 2170 nM. For the same molecule, the EC50 in test [5] came to 1.25 nM. In test [6], the dissociation constant Kd came out at 122 nM, the “T½” value worked out at 4.7 min, the koff worked out at 0.00248 s⁻¹ and the kon was 20300 M⁻¹ s⁻¹.

B5: BSPSMA/CD3-1100 (bispecific antibody, IgG4, V domains shown)
VH 1: QVQLVESGGGVVQPGRSLRLSCAASGFTFSSYGMHWVRQAPGKGLEWVAVISYAGNNKYYADSVKGRFTVSRDNSKKTLYLQMNSLRSEDTAVYYCAKDSYYDFLTDPDVLDIWGQGTMVTVSS
VH 2: EVQLVESGGGLVQPGRSLRLSCAASGFTFDDYSMHWVRQAPGKGLEWVSGISWNSGSKGYADSVKGRFTISRDNAKNSLYLQMNSLRAEDTALYYCAKYGSGYGKFYHYGMDVWGQGTTVTVSS
VL: DIQMTQSPSSLSASVGDSVTITCRASQSINNYLNWYQQKPGKAPKLLIYTASSLLSGVPSRFSGSGSGTDFTLTISGLHPEDFATYFCQQSFSTPPITFGQGTRLDIK
notes: modified (chimeric) IgG4 Fc domain; also called PSMA-VH-11810 x CD3-VH-G11
As to B5, in test [1], the EC50 worked out at 18.3 nM. The “TrampC2.PSMA Cell depletion EC50” value in test [2] was determined as 0.00386 nM. For the same molecule, the “T cell activation EC50” value in test [3] worked out at 0.00111 nM. A half-maximal effect in test [4] (EC50) was put at 890 nM. In addition, in test [5], the EC50 stood at 1.03 nM. In test [6], the Kd stood at 11.1 nM, the “T½” value was 11.3 min, the koff turned out to be 0.00102 s⁻¹ and the kon worked out at 92100 M⁻¹ s⁻¹.

B6: BSPSMA/CD3-005 (bispecific antibody, IgG4, V domains shown)
VH 1: QVQLVESGGGVVQPGRSLRLSCAASGFTFSSYGMHWVRQAPGKGLEWVAVISYAGNNKYYADSVKGRFTVSRDNSKKTLYLQMNSLRSEDTAVYYCAKDSYYDFLTDPDVLDIWGQGTMVTVSS
VH 2: EVQLVESGGGLVQPGRSLRLSCAASGFTFDDYSMHWVRQAPGKGLEWVSGISWNSGSIGYADSVKGRFTISRDNAKNSLYLQMNSLRAEDTALYYCAKYGSGYGKFYYYGMDVWGQGTTVTVSS
VL: DIQMTQSPSSLSASVGDSVTITCRASQSINNYLNWYQQKPGKAPKLLIYTASSLLSGVPSRFSGSGSGTDFTLTISGLHPEDFATYFCQQSFSTPPITFGQGTRLDIK
notes: modified (chimeric) IgG4 Fc domain; also called PSMA-VH-11810 x CD3-VH-G20
Turning to B6, in test [1], the EC50 amounted to 210 nM. Further, in test [2], the “22RV1 Cell depletion EC50” value amounted to 0.00832 nM and the “C4-2 Cell depletion EC50” value stood at 0.0139 nM. Also, the “T cell activation EC50” value in test [3] stood at 0.00611 nM. The molecule further yielded an EC50 in test [4] of 6140 nM. Moreover, a half-maximal effect in test [5] (EC50) was put at 2.09 nM. In addition, in test [6], the Kd came out at 334 nM, the “T½” value amounted to 2 min, the koff is 0.00577 s⁻¹ and the kon worked out at 17300 M⁻¹ s⁻¹.

B7: BSPSMA/CD3-1700 (bispecific antibody, IgG4, V domains shown)
VH 1: QVQLVESGGGVVQPGRSLRLSCAASGFTFSSYGMHWVRQAPGKGLEWVAVISYAGNNKYYADSVKGRFTVSRDNSKKTLYLQMNSLRSEDTAVYYCAKDSYYDFLTDPDVLDIWGQGTMVTVSS
VH 2: EVQLVESGGGLVQPGRSLRLSCAASGFTFDDYSMHWVRQAPGKGLEWVSGISWNSGSKGYADSVKGRFTISRDNAKNSLYLQMNSLRAEDTALYYCAKYGSGYGKFYYYGMDVWGQGTTVTVSS
VL: DIQMTQSPSSLSASVGDSVTITCRASQSINNYLNWYQQKPGKAPKLLIYTASSLLSGVPSRFSGSGSGTDFTLTISGLHPEDFATYFCQQSFSTPPITFGQGTRLDIK
notes: modified (chimeric) IgG4 Fc domain; also called PSMA-VH-11810 x CD3-VH-G17
Turning to B7, in test [1], the concentration giving a half-maximal response (EC50) is 200 nM. Besides, in test [2], the “22RV1 Cell depletion EC50” value amounted to 0.00207 nM and the “C4-2 Cell depletion EC50” value turned out to be 0.00737 nM. Further, the “T cell activation EC50” value in test [3] was 0.00389 nM. The same molecule returned an EC50 in test [4] of 3350 nM. Besides, the midpoint of the response in test [5], the EC50, lay at 1.34 nM. For the same molecule, in test [6], binding was characterised by a dissociation constant (Kd) of 65.2 nM, the “T½” value was 3.8 min, the koff is 0.00307 s⁻¹ and the kon was determined as 47000 M⁻¹ s⁻¹.

(Values after patent US20190127480A1 (Regeneron, published 2019).)
